Data set [1] concerns the target T1, Lsm1-7 complex (Schizosaccharomyces pombe, UniProt P87173;O94408;Q9Y7M4;O14352;O42978;Q9UUI1;O74499 …). Nature of the data set: SEC-MALS; monomeric complex; FP: 200 mM NaCl, 20 mM HEPES pH 7.0, 1 mM DTT, 5 mM MgCl2, 0.3 ug/uL acetylated BSA, 500 pM 5'-FAM RNA, 22 C. As to conditions: protein: recombinant; tags: N-terminal His6-TEV on Lsm1, TEV-treated; copies: 1;1;1;1;1;1;1. On the technique in general: In gel filtration, larger molecules generally elute earlier.

Data set [2] has as its target T2, PatMC (Pat1/Pdc2 middle and C-terminal domains);Lsm1-7 complex (Schizosaccharomyces …, UniProt O42958;P87173;O94408;Q9Y7M4;O14352;O42978;Q9UUI1;O74499 …, |). Nature of the data set: SEC-MALS; stoichiometric RNA; dimeric and tetrameric assemblies; FP: 200 mM NaCl, 20 mM HEPES pH 7.0, 1 mM DTT, 5 mM MgCl2, 0.3 ug/uL acetylated BSA, 500 pM 5'-FAM RNA, 22 C. Particulars: protein: recombinant;recombinant; tags: none stated in coexpressed complex;N-terminal His6-TEV on Lsm1, TEV-treated; copies: 1;1;1;1;1;1;1;1.

For data set [3], the target named is T1, Lsm1-7 complex. Nature of the data set: fluorescence polarization; 5 mM Mg2+; strongly favored; FP: 200 mM NaCl, 20 mM HEPES pH 7.0, 1 mM DTT, 5 mM MgCl2, 0.3 ug/uL acetylated BSA, 500 pM 5'-FAM RNA, 22 C. As to conditions: protein: recombinant; tags: N-terminal His6-TEV on Lsm1, TEV-treated; copies: 1;1;1;1;1;1;1; label: 5'-FAM.
Data set [4] addresses T2, PatMC (Pat1/Pdc2 middle and C-terminal …). Nature of the data set: fluorescence polarization; 5 mM Mg2+; Hill ~1; affinity not affected by PatMC; FP: 200 mM NaCl, 20 mM HEPES pH 7.0, 1 mM DTT, 5 mM MgCl2, 0.3 ug/uL acetylated BSA, 500 pM 5'-FAM RNA, 22 C. As to conditions: protein: recombinant;recombinant; tags: none stated in coexpressed complex;N-terminal His6-TEV on Lsm1, TEV-treated; copies: 1;1;1;1;1;1;1;1; label: 5'-FAM. Background: In fluorescence polarisation assays a small probe gives low polarisation when free and higher when bound to something large.

On to UUUUUUUUUUUUUUU (ssRNA) [U15 (SEC-MALS)], for which the binding result (with Lsm1-7 complex [1]; in data set [2]) was “binds” throughout.

As for UUUUUUUUUUUUUUU (ssRNA) [U15 (FAM)], the binding result (with Lsm1-7 complex [3]; in data set [4]) was “binds” in each case.

Source of the values: publication PMC7491320, “Pdc2/Pat1 increases the range of decay factors and RNA bound by the Lsm1–7 complex”.
